Three molecules from PMC7116848 (Nature, 2019) can be followed below.

One series deals with T1, Mgm1 (truncated s-Mgm1) (Thermochaetoides thermophila, UniProt G0SGC7).
T1 sequence (G0SGC7 219-912): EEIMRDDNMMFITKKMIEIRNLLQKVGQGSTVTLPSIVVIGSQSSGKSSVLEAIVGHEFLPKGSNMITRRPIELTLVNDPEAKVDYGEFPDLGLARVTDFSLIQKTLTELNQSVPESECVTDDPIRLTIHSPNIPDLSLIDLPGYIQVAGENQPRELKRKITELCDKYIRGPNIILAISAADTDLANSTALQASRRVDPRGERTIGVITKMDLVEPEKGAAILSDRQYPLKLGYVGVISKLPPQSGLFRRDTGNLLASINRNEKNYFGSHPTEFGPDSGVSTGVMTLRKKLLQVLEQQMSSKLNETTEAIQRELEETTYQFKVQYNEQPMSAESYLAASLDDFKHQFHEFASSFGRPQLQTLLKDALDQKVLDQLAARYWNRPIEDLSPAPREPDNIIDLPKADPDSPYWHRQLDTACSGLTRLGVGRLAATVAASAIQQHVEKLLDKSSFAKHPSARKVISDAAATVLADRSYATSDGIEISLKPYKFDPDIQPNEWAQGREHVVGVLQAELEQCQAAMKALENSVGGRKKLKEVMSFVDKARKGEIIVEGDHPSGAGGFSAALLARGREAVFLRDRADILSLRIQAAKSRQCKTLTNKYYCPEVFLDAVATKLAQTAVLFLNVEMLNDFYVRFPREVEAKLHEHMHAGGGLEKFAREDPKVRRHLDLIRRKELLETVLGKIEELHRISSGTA
Kind of series: isothermal titration calorimetry. In kind it is binding. (In general: In ITC the heat of successive injections is recorded.)

The series “AUC” concerns the molecule itself. Kind of series: AUC.
The series “crystal structure” concerns the molecule itself. Kind of series: crystal structure.

For `Nc1nc2c(ncn2[C@@H]2O[C@H](COP(=O)(O)OP(=O)(O)OP(O)(O)=S)[C@@H](O)[C@H]2O)c(=O)[nH]1` [GTPγS], at Mgm1 (truncated s-Mgm1), the Kd (usually the equilibrium constant for the complex coming apart) stood at 9 ± 3 µM.

B1: Chaetomium thermophilum Mgm1 (amino acids 219-912), truncated s-Mgm1 isoform (domain or fragment, UniProt G0SGC7 219-912, looked up)
chain: EEIMRDDNMMFITKKMIEIRNLLQKVGQGSTVTLPSIVVIGSQSSGKSSVLEAIVGHEFLPKGSNMITRRPIELTLVNDPEAKVDYGEFPDLGLARVTDFSLIQKTLTELNQSVPESECVTDDPIRLTIHSPNIPDLSLIDLPGYIQVAGENQPRELKRKITELCDKYIRGPNIILAISAADTDLANSTALQASRRVDPRGERTIGVITKMDLVEPEKGAAILSDRQYPLKLGYVGVISKLPPQSGLFRRDTGNLLASINRNEKNYFGSHPTEFGPDSGVSTGVMTLRKKLLQVLEQQMSSKLNETTEAIQRELEETTYQFKVQYNEQPMSAESYLAASLDDFKHQFHEFASSFGRPQLQTLLKDALDQKVLDQLAARYWNRPIEDLSPAPREPDNIIDLPKADPDSPYWHRQLDTACSGLTRLGVGRLAATVAASAIQQHVEKLLDKSSFAKHPSARKVISDAAATVLADRSYATSDGIEISLKPYKFDPDIQPNEWAQGREHVVGVLQAELEQCQAAMKALENSVGGRKKLKEVMSFVDKARKGEIIVEGDHPSGAGGFSAALLARGREAVFLRDRADILSLRIQAAKSRQCKTLTNKYYCPEVFLDAVATKLAQTAVLFLNVEMLNDFYVRFPREVEAKLHEHMHAGGGLEKFAREDPKVRRHLDLIRRKELLETVLGKIEELHRISSGTA
Regarding B1, the Kd in “AUC” is 1 µM.

B2: Seleno-methionine substituted Chaetomium thermophilum Mgm1 (amino acids 219-912) (domain or fragment, UniProt G0SGC7 219-912, looked up)
chain: EEIMRDDNMMFITKKMIEIRNLLQKVGQGSTVTLPSIVVIGSQSSGKSSVLEAIVGHEFLPKGSNMITRRPIELTLVNDPEAKVDYGEFPDLGLARVTDFSLIQKTLTELNQSVPESECVTDDPIRLTIHSPNIPDLSLIDLPGYIQVAGENQPRELKRKITELCDKYIRGPNIILAISAADTDLANSTALQASRRVDPRGERTIGVITKMDLVEPEKGAAILSDRQYPLKLGYVGVISKLPPQSGLFRRDTGNLLASINRNEKNYFGSHPTEFGPDSGVSTGVMTLRKKLLQVLEQQMSSKLNETTEAIQRELEETTYQFKVQYNEQPMSAESYLAASLDDFKHQFHEFASSFGRPQLQTLLKDALDQKVLDQLAARYWNRPIEDLSPAPREPDNIIDLPKADPDSPYWHRQLDTACSGLTRLGVGRLAATVAASAIQQHVEKLLDKSSFAKHPSARKVISDAAATVLADRSYATSDGIEISLKPYKFDPDIQPNEWAQGREHVVGVLQAELEQCQAAMKALENSVGGRKKLKEVMSFVDKARKGEIIVEGDHPSGAGGFSAALLARGREAVFLRDRADILSLRIQAAKSRQCKTLTNKYYCPEVFLDAVATKLAQTAVLFLNVEMLNDFYVRFPREVEAKLHEHMHAGGGLEKFAREDPKVRRHLDLIRRKELLETVLGKIEELHRISSGTA
modifications: seleno-methionine substituted for methionine
B2: in the series “crystal structure”, the binding result was “binds”.
